Changes are numbered by the printed parent chain.
B1: ADI-41352 (antibody, V domains shown)
VH: EVQLVESGGGLVQPGGSLRLSCAASGFTFSSYRMNWVRQAPGKGLEWVSYIDISSSTIYYADSVKGRFTISRDNAKNSLYLQMNSLRAEDTAVYYCARDQLVWEPLIRNHYYYAMDVWGQGTTVTVSS
VL: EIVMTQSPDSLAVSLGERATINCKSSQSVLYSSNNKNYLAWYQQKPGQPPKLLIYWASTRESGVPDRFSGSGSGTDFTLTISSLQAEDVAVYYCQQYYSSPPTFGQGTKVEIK
notes: IgG1
B2: ADI-41356 (antibody, V domains shown)
VH: QVQLVQSGAEVKKPGASVKVSCKASGYTFTNYDINWVRQATGQGLEWMGWMNRNNGNTGYARKFQGRVTMTRNTSISTAYMELSSLRSEDTAVYYCARGGDFYAMDVWGQGTTVTVSS
VL: SYELTQPPSVSVSPGQTASITCSGDKLGDKYASWYQQKPGQSPVLVIYQDTKRPSGVPERFSGSNSGNTATLTISGTQAVDEADYYCQVWDGSIAFGGGTKVTVL
notes: IgG1
B3: ADI-41377 (antibody, V domains shown)
VH: QVQLQQSGPGLVKPSQTLSLTCAISGDSVSSDSATWNWIRQSPSRGLEWLGRAYYRSKWYYDYAPSVKSRLTINPDTSKNQFSLQLTSVTPQDTAVYFCARDLPPLEYFDGSGYYFLDHWGQGTLVTVSS
VL: SYELTQPPSVSVAPGQTARLSCGGHNIGSKSVQWYQQKPDQAPVLVVYDDHDRPSGIPDRFSGSNSGDMATLTISRVEAGDEADYYCQVCESGRDPMVFGGGTKVTVL
notes: IgG1; also called Ab 674
B4: ADI-41398 (antibody, V domains shown)
VH: EVQLLESGAEVKKPGASVKVSCKASGYTFTNYGISWVRQAPGQGLEWMGWISAYNGNTNYAQKLQGRVTMTTDTSTSTAYMELRSLRSDDTAVYYCARDGGVIAAATLGYWGQGTLVTVSS
VL: EIVLTQSPLSLPVTLGQPASISCRSSQSLVYSDGNTYLSWFQQRPGQSPRRLIYKISNRDSGVPNRFSGSGSGTDFTLKISRVEAEDVGIYYCMQGIYWPPTFGQGTKVEIK
notes: IgG1; also called Ab 691
B5: ADI-41401 (antibody, V domains shown)
VH: EVQLLESGGGLVHPGRSLRLSCAASGFTFGDYAMHWVRQAPGKGLEWVSGISWNSDTIEYADSVKGRFTISRDNAKNSLYLQMNSLRAEDTALYYCAKDFGSSWEAYFDYWGQGTLVTVSS
VL: DIVLTQSPSYLSASVGDRVTITCRASQSISTYLNWYQQKPGKAPKLLISAASSLQSGVTSRFSGSGSGTDFSLTISSLQPEDFATYYCQQSYSTALTFGGGTKVEIK
notes: IgG1
B6: ADI-41416 (antibody, V domains shown)
VH: EVQLVESGGGLVKPGGSLRLSCAASGFKFSSYTMNWVRQAPGKGLEWVSSITGGSSFINYADSVKGRFTISRDNAKNSLYLQMVSLRAEDTAVYYCARDLSSHITIFGAVSDYWGRGTTVTVSS
VL: QSVLTQPPSVSGAPGQRVTISCTGSSSNIGAGYDAHWFQQLPGSAPKLLIYANTNRPSGVPDRFSGSKSGTSASLAITGLQAEDEADYYCQSYDSTLSVVFGGGTKLTVL
notes: IgG1
B7: ADI-41419 (antibody, V domains shown)
VH: EVQLVESGGGLVQPGRSLRLSCAASGFTFDDYAMHWVRQAPGKGLEWVSGISWNSGSVGYSDSVKGRFTISRDNAKSSLYLQMNNLRAEDTALYYCARDMAHTQDYFDTSEYDSWGQGTLVTVSS
VL: QPVLTQPASVSGSPGQSITISCTGTSSDIGAYNYVSWYQQHPGKAPKLVVYEVNNRPSGISNRFSGSKSGNTASLTISGLQAEDEADYYCSSYTVSATLVFGGGTKLTVL
notes: IgG1
B8: ADI-41421 (antibody, V domains shown)
VH: QVQLVESAAEVKRPGASLKVSCKASGYTFIDYDISWVRQAPGQGLDWMGWISTYDGSAKYPENLQARVAMTTDTSTSTAYMELESLTSDDTAVYYCARARRGSSGWVSTTGPTPFFDYWGRGTLVTVSS
VL: SYELTQPPSVSVSPGQTARITCSGDALPKRYAYWYQQKSGQAPVLVIYEDNKRPSGIPERFSGSSSGTVATLTISGAQVEDEADYSCYSTDATGNHRGLFGGGTKLTVL
notes: IgG1
B9: ADI-41434 (antibody, V domains shown)
VH: EVQLVESGGGLVQPGRSLRLSCEASGFTFDDYAMHWVRQTPGKGLEWVSGISWNSGSIVYADSVKGRFTISRDNAKNSLYLQMHSLRPEDTALYYCAKDNYTFGNYYYYYGMDVWGQGTTVTVSS
VL: EIVLTQSPVTLSVSPGERATLSCRASQNVISNLAWYQQKPGQAPRLLIYGASTRATGIPARFSGSGSGTEFTLTISSLQSEDFAVYYCQQYNNWPLSFGGGTKVEIK
notes: IgG1; also called Ab 718
B10: ADI-41442 (antibody, V domains shown)
VH: EVQLLESGGGLVQPGRSLRLSCAASGFTFDDYAMHWVRQAPGKGLEWVSGISWHSGSIVYADSVKGRFTISRDNAKNSLYLQMSSLRAEDTALYYCVKDHYNWNDNPHFHYGLDVWGQGTTVTVSS
VL: B9 VL with V9A, N28S, L47F, Y87F, L96I, S97T, G100Q, K103R, V104L
notes: IgG1; also called Ab 726
B11: ADI-41447 (antibody, V domains shown)
VH: EVQLLESGGGLVQPGGSLRLSCAASGFTFSTYAMNWVRQAPGKGLEWVSTISGSGGSTYYGDSVKGRFTISRDNSKNTLYLQMNSLRAEDTAVYYCAKAPTPWCSGGSCYVSYWGQGTLVTVSS
VL: DIVMTQTPGTLSLSPGERGTLSCRASQSVSSSYLAWYQQKPGQAPRLLIYGASSRATGIPDRFGGSGSGTDFTLTISTLEPEDFAVYYCQQYQSSPWTFGQGTKLEIK
notes: IgG1
B12: ADI-41449 (antibody, V domains shown)
VH: EVQLVESGGGLVKPGGSLRLSCAASGFSFSSYRVNWVRQAPGKGLEWVSSITGGSSFIDYADSVKGRFTISRDNAKNSLFLQMNSLRAEDTAVYFCARDSMTTVTNSLAFDIWGQGTMVTVSS
VL: QSVLTQPPSVSGAPGQRVTISCTGSSSNIGVGYDVQWYQQLPGTAPKLLIYSNNKRPSGVPDRFSGSKSGTSASLAITGLQAEDEADYYCQSYDRSLSVVFGGGTKVTVL
notes: IgG1
B13: ADI-41450 (antibody, V domains shown)
VH: EVQLVESGGGLVKPGGSLRLSCAASGFAFSSYGINWVRQVPGKRLEWVSSISGGSSFINYADSVKGRFTISRDNAGNSVYLQMNSLRAEDTAVYFCARESYGSGSSLNWFDPWGQGTLVTVSS
VL: QSVLTQPPSVSGAPGQRVTISCTGSGSNIGAGYDVHWYQQLPGIAPRLVIFGNRNRPSGVPDRISGSKSDTSASLAITGLQAEDEGDYYCQSYDKRLSGWVFGGGTKLTVL
notes: IgG1
B14: ADI-41452 (antibody, V domains shown)
VH: QVQLVQSGAELKKPGASVKVSCKASGHTFATYAIHWVRQAPGQSLEWLGWINTANGDTKYSQKFRATVTIHGDTSANTVYLELSRLRSEDTAVYYCASPPLVGAINLEFWGPGTLVTVSS
VL: QSVLTQPASVSGSVGQSITISCTGTSSDVGGYNSVSWYQHHPDKAPKLIIYEVSNRPSGVSHRFSGSKSGNTASLTISGLQAEDEADYYCSSYTTSDTLIFGGGTKVTVL
notes: IgG1; also called Ab 736
B15: ADI-41454 (antibody, V domains shown)
VH: QVQLVQSGAEVKKPGASVKVSCKASGYTFTHFGISWVRQAPGQGLEWMGWISIYNGNTNYAQKIQGRATMTTDASTSTAYMELRSLTSDDTAVYYCAREPPSTTAAATSDYWGQGTLVTVSS
VL: DIVMTQSPLSLPVTLGQPASISCRSSQSLVYIEGNTYLSWFQQRPGQSPRRLIYKVSNRDSGVPDRFSGSGSGTDFTLKISRVEAEDVGLYYCMQGTHWPRTFGQGTKLEIK
notes: IgG1; also called Ab 738
B16: ADI-21069 (antibody, V domains shown)
VH: EVQLVESGAEVRKPGASVKVSCKASGYTFSSNAISWVRQAPGQGLEWMGYISVFNGNTKYAQNLQGRVTMTTDTATSTVYMELRSLRYDDTAIYYCARESLGMGGFYFDHWGQGTLVTVSS
VL: SYELTQPPSVSVAPGQTARITCGANNIGSDSVHWYQQKPGQAPVLVVFDDRDRPSGIPERFSGSNSGNTATLTISRVEAGDEADYYCQVWMTSDRSVFGGGTKLTVL
B17: ADI-21078 (antibody, V domains shown)
VH: EVQLVESGGGLVKPGGSLRLSCAASGFRLSDYYMSWIRQAPGKGLEWISDISGGSTYTNYADSVKGRLTISRDNAQNSLYLQMNSLRAEDTAVYYCARWGSGGPDAFHFWGQGTTVTVSS
VL: QSVLTQPPSVSGVPGQRVTISCTGSRSNIGAGYDVHWYRQLPGTAPKLLIYGNSNRPSGVPDRFSGSKSGTSASLAITGLQADDEADYYCQSYDSSLSGSVIFGGGTKVTVL

Target: RSV postfusion F (postF), F deltaFP (respiratory syncytial virus, UniProt P03420 26-513)
Assay: BLI, IgG on sensor

| Binder | binding result |
| --- | --- |
| B1 | no binding (tested: 100 nM antigen) |
| B2 | no binding (tested: 100 nM antigen) |
| B3 | no binding (tested: 100 nM antigen) |
| B4 | no binding (tested: 100 nM antigen) |
| B5 | no binding (tested: 100 nM antigen) |
| B6 | no binding (tested: 100 nM antigen) |
| B7 | no binding (tested: 100 nM antigen) |
| B8 | no binding (tested: 100 nM antigen) |
| B9 | no binding (tested: 100 nM antigen) |
| B10 | no binding (tested: 100 nM antigen) |
| B11 | no binding (tested: 100 nM antigen) |
| B12 | no binding (tested: 100 nM antigen) |
| B13 | no binding (tested: 100 nM antigen) |
| B14 | no binding (tested: 100 nM antigen) |
| B15 | no binding (tested: 100 nM antigen) |

Target: RSV F on recombinant mKate-RSV A2 virus (Respiratory syncytial virus A2, UniProt P03420 26-574)
Assay: cell-based or functional assay

| Binder | Neut IC50 (ug/ml) subtype A [µg/mL] |
| --- | --- |
| B16 | 0.11 |
| B17 | 0.03 |

Target: RSV F on recombinant mKate-RSV B 18537 virus (Respiratory syncytial virus B 18537, UniProt P13843 26-574)
Assay: cell-based or functional assay

| Binder | Neut IC50 (ug/ml) subtype B [µg/mL] |
| --- | --- |
| B16 | 0.26 |
| B17 | 0.2 |

Target: RSV fusion glycoprotein (RSV F) on RSV-A2 virus (respiratory syncytial virus, UniProt P03420 26-574)
Assay: cell-based or functional assay

| Binder | Neutralization IC50 (RSV subtype A) [µg/mL] |
| --- | --- |
| B1 | > 25 |
| B2 | 0.115 |
| B3 | 0.24 |
| B4 | 0.17 |
| B5 | > 25 |
| B6 | 0.05 |
| B7 | 0.01 |
| B8 | 4.78 |
| B9 | > 25 |
| B10 | 0.04 |
| B11 | > 25 |
| B12 | 0.16 |
| B13 | 0.21 |
| B14 | > 25 |
| B15 | 0.88 |

Target: RSV prefusion F, subtype A (preF, DS-Cav1 trimer) (Respiratory syncytial virus subtype A, UniProt P03420 26-513)
Assay: BLI, IgG apparent affinity

| Binder | Kd [nM] |
| --- | --- |
| B16 | 0.123 |
| B17 | 0.311 |

Target: RSV prefusion F (preF), DS-Cav1 (respiratory syncytial virus, UniProt P03420 26-513)
Assay: BLI, IgG on sensor, 100 nM antigen

| Binder | Kd [nM] |
| --- | --- |
| B1 | 3.36 |
| B2 | 0.725 |
| B3 | 1.74 |
| B4 | 0.6 |
| B5 | 3.22 |
| B6 | 0.444 |
| B7 | 0.305 |
| B8 | 2.52 |
| B9 | 0.613 |
| B10 | 0.521 |
| B11 | 54.1 |
| B12 | 0.508 |
| B13 | 0.613 |
| B14 | 3.33 |
| B15 | 0.588 |

— patent publication US20260258115A1 (MAPP BIOPHARMACEUTICAL, published 2026)
